Measured values as given in IntAct's records for PubMed 11356191.

Target: ptn13_human PTPN13 (UniProt Q12923)
Sequence (Q12923 whole entry): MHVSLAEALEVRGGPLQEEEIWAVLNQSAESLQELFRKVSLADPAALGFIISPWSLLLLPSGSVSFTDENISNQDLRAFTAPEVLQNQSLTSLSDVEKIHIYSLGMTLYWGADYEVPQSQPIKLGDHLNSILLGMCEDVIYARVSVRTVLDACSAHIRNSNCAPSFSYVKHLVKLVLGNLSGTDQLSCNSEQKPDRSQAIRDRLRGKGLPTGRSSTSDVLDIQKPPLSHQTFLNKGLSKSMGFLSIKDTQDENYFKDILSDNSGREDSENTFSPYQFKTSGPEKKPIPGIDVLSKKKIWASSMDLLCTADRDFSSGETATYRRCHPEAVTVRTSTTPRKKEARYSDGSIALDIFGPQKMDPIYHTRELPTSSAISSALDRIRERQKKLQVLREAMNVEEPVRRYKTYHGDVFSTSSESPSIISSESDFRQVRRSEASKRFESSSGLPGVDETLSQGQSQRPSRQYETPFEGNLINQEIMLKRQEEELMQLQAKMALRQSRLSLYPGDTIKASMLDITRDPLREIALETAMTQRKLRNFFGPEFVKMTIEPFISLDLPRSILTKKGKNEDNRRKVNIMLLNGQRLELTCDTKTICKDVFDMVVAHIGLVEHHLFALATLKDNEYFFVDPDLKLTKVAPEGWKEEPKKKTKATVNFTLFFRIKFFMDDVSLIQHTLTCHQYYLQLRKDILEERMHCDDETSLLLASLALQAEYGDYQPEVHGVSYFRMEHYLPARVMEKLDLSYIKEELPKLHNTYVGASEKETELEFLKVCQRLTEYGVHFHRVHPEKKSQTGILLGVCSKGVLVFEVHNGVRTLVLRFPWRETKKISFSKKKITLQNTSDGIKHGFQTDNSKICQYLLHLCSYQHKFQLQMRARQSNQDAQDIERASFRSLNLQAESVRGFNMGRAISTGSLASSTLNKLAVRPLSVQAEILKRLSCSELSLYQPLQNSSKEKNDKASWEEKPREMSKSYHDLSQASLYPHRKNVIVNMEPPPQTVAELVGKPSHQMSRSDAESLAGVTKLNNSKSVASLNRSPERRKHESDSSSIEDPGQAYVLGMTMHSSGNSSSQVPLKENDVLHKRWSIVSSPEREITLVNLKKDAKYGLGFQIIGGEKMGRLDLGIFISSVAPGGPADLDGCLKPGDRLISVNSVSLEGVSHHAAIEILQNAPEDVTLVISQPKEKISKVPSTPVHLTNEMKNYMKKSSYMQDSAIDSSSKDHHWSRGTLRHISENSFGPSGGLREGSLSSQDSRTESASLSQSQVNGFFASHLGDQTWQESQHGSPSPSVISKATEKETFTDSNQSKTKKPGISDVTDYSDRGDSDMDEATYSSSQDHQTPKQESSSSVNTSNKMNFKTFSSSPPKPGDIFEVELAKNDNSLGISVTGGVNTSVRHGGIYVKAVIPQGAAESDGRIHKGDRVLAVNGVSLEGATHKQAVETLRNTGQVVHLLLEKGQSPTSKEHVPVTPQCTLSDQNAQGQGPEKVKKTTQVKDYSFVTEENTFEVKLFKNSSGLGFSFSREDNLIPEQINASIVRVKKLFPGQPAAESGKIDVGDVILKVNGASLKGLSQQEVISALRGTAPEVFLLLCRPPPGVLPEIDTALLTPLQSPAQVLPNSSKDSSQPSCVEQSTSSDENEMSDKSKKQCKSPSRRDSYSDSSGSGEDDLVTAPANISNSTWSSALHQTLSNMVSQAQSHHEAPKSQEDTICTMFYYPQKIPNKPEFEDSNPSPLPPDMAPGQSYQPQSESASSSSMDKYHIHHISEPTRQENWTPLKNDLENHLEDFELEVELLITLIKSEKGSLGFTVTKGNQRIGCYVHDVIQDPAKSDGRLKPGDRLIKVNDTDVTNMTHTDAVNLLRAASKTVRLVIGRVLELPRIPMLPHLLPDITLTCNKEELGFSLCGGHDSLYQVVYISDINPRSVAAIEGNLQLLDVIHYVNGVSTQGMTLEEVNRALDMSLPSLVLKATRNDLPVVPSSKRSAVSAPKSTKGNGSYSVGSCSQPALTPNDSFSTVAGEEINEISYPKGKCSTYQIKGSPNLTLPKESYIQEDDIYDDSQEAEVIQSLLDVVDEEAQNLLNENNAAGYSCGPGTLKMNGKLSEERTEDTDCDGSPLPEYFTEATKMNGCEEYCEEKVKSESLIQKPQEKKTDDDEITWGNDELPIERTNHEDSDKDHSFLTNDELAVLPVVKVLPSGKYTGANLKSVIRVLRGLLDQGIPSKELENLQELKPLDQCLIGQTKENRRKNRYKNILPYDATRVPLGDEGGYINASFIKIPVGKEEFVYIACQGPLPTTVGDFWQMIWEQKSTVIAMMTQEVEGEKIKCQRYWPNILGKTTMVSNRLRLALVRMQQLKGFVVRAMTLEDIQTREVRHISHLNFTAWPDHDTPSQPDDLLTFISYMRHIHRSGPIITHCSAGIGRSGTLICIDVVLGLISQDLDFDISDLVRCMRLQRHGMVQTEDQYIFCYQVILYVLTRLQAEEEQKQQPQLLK

effect of a mutation on the interaction: disrupting interaction
Substance: Serine/threonine-protein kinase N2 (Homo sapiens), Q16513 C984S
